Starred links: 1 amine or outer side, 2 acyl side, 3 side chain; linkers in the order of their positions; H or OH if unused. Non-standard residues stand in square brackets, D forms with d. No end group written: not given here. Phe(2-(4-CF3-phenyl)) = O=C([C@H](Cc1ccccc1-c1ccc(C(F)(F)F)cc1)N[*:1])[*:2]; Phe(2-(2-methyl-1-propenyl)) = CC(C)=Cc1ccccc1C[C@H](N[*:1])C(=O)[*:2]; Phe(2-(3-thienyl)) = O=C([C@H](Cc1ccccc1-c1ccsc1)N[*:1])[*:2]; Phe(3-vinyl) = C=Cc1cccc(C[C@H](N[*:1])C(=O)[*:2])c1; Phe(4-vinyl) = C=Cc1ccc(C[C@H](N[*:1])C(=O)[*:2])cc1; Phe(2-vinyl) = C=Cc1ccccc1C[C@H](N[*:1])C(=O)[*:2]; Phe(3-Ph) = N[C@@H](Cc1cccc(-c2ccccc2)c1)C(=O)O; Phe(2-Ph) = N[C@@H](Cc1ccccc1-c1ccccc1)C(=O)O; Dmt = Cc1cc(O)cc(C)c1C[C@H](N)C(=O)O
Tests used:
δ opioid receptor [1] = molecular target: δ opioid receptor (UniProt P41143)
μ opioid receptor [2] = molecular target: μ opioid receptor (UniProt P35372)
δ opioid receptor [3] = molecular target: δ opioid receptor (UniProt P41143); assay: radioligand binding
μ opioid receptor [4] = molecular target: μ opioid receptor (UniProt P35372); assay: radioligand binding
δ opioid receptor [5] = molecular target: δ opioid receptor (UniProt P41143); remark: listed apart in the source
μ opioid receptor [6] = molecular target: μ opioid receptor (UniProt P35372); remark: listed apart in the source

Binder | IC50 in the mouse vas deferens (MVD) assay (δ opioid receptor [1]) | IC50 in the guinea pig ileum (GPI) assay (μ opioid receptor [2]) | IC50 (δ opioid receptor [3]) | IC50 (μ opioid receptor [4]) | EPAC DOP EC50 (EPAC cAMP BRET-based biosensor assay) (δ opioid receptor [5]) | EPAC MOP EC50 (EPAC cAMP BRET-based biosensor assay) (μ opioid receptor [6]) | IC40 (partial agonist) in the mouse vas deferens (MVD) assay (δ opioid receptor [1])
[Dmt][dA][Phe(2-Ph)]G-NH2 (N-terminus assumed; SMILES Cc1cc(O)cc(C)c1C[C@H](N)C(=O)N[C@H](C)C(=O)N[C@@H](Cc1ccccc1-c1ccccc1)C(=O)NCC(N)=O) [Dmt-D-Ala-Phe(2-phenyl)-Gly-NH2] | 2.6 nM | 1.6 nM | 19.8 nM | 0.35 nM |  |  | 
[Dmt][dR][Phe(3-vinyl)]G-NH2 (N-terminus assumed; SMILES C=Cc1cccc(C[C@H](NC(=O)[C@@H](CCCNC(=N)N)NC(=O)[C@@H](N)Cc2c(C)cc(O)cc2C)C(=O)NCC(N)=O)c1) [Dmt-D-Arg-Phe(3-vinyl)-Gly-NH2] | 9.74 nM | 1.43 nM | 165 nM | 0.46 nM |  |  | 
[Dmt][dR][Phe(2-vinyl)]G-NH2 (N-terminus assumed; SMILES C=Cc1ccccc1C[C@H](NC(=O)[C@@H](CCCNC(=N)N)NC(=O)[C@@H](N)Cc1c(C)cc(O)cc1C)C(=O)NCC(N)=O) [Dmt-D-Arg-Phe(2-vinyl)-Gly-NH2] | 0.406 nM | 0.389 nM | 18 nM | 0.47 nM | 7 nM |  | 
[Dmt][dR][Phe(2-(3-thienyl))]G-NH2 (N-terminus assumed; SMILES Cc1cc(O)cc(C)c1C[C@H](N)C(=O)N[C@H](CCCNC(=N)N)C(=O)N[C@@H](Cc1ccccc1-c1ccsc1)C(=O)NCC(N)=O) [Dmt-D-Arg-Phe(2-(3-thienyl))-Gly-NH2] | 2.75 nM | 1.54 nM | 625 nM | 1.45 nM | 49 nM |  | 
[Dmt][dR][Phe(2-(4-CF3-phenyl))]G-NH2 (N-terminus assumed; SMILES Cc1cc(O)cc(C)c1C[C@H](N)C(=O)N[C@H](CCCNC(=N)N)C(=O)N[C@@H](Cc1ccccc1-c1ccc(C(F)(F)F)cc1)C(=O)NCC(N)=O) [Dmt-D-Arg-Phe(2-(4-CF3-phenyl))-Gly-NH2] | 1.78 nM | 1.26 nM |  |  | 26.8 nM |  | 
[Dmt][dA][Phe(2-vinyl)]G-NH2 (N-terminus assumed; SMILES C=Cc1ccccc1C[C@H](NC(=O)[C@@H](C)NC(=O)[C@@H](N)Cc1c(C)cc(O)cc1C)C(=O)NCC(N)=O) [Dmt-D-Ala-Phe(2-vinyl)-Gly-NH2] | 2.81 nM | 1.18 nM | 8 nM | 0.25 nM |  |  | 
[Dmt][dR]FG-NH2 (N-terminus assumed; SMILES Cc1cc(O)cc(C)c1C[C@H](N)C(=O)N[C@H](CCCNC(=N)N)C(=O)N[C@@H](Cc1ccccc1)C(=O)NCC(N)=O) [Dmt-D-Arg-Phe-Gly-NH2] | 0.316 nM | 2.26 nM |  |  | 1.13 nM |  | 
[Dmt][dA][Phe(2-(3-thienyl))]G-NH2 (N-terminus assumed; SMILES Cc1cc(O)cc(C)c1C[C@H](N)C(=O)N[C@H](C)C(=O)N[C@@H](Cc1ccccc1-c1ccsc1)C(=O)NCC(N)=O) [Dmt-D-Ala-Phe(2-(3-thienyl))-Gly-NH2] | 2.16 nM | 1.27 nM | 687 nM | 240 nM |  | 34.8 nM | 
[Dmt][dR][Phe(4-vinyl)]G-NH2 (N-terminus assumed; SMILES C=Cc1ccc(C[C@H](NC(=O)[C@@H](CCCNC(=N)N)NC(=O)[C@@H](N)Cc2c(C)cc(O)cc2C)C(=O)NCC(N)=O)cc1) [Dmt-D-Arg-Phe(4-vinyl)-Gly-NH2] | 430 nM | 24.1 nM | 1420 nM | 1.82 nM |  |  | 
[Dmt][dR][Phe(2-(2-methyl-1-propenyl))]G-NH2 (N-terminus assumed; SMILES CC(C)=Cc1ccccc1C[C@H](NC(=O)[C@@H](CCCNC(=N)N)NC(=O)[C@@H](N)Cc1c(C)cc(O)cc1C)C(=O)NCC(N)=O) [Dmt-D-Arg-Phe(2-(2-methyl-1-propenyl)-Gly-NH2] | 0.63 nM | 0.701 nM | 585 nM | 0.57 nM | 19.4 nM |  | 
[Dmt][dA]FG-NH2 (N-terminus assumed; SMILES Cc1cc(O)cc(C)c1C[C@H](N)C(=O)N[C@H](C)C(=O)N[C@@H](Cc1ccccc1)C(=O)NCC(N)=O) [Dmt-D-Ala-Phe-Gly-NH2] | 1.15 nM | 1.5 nM |  |  | 2.4 nM | 0.012 nM | 
[Dmt][dR][Phe(3-Ph)]G-NH2 (N-terminus assumed; SMILES Cc1cc(O)cc(C)c1C[C@H](N)C(=O)N[C@H](CCCNC(=N)N)C(=O)N[C@@H](Cc1cccc(-c2ccccc2)c1)C(=O)NCC(N)=O) [Dmt-D-Arg-Phe(3-phenyl)-Gly-NH2] |  | 61.7 nM | 269 nM | 0.85 nM |  |  | 117 nM

— publication PMC6005765 (Bioorganic & medicinal chemistry letters, 2018)
